According to US7785825B2, “Compositions and methods for dehydration and cyclization of peptides, synthetic compounds, and lantibiotics” (priority 2004, dated 2010):

Assays:
LctM = LctM (Lactococcus lactis subsp. lactis, UniProt P37609); experiment: LctM activity assay: dehydration and cyclization of peptide substrates, read out by MS; assay type: biochemical, Lactococcus lactis CNRZ 481; details: for effect on LctM processing of His6-LctA: ATP analog in place of ATP, EDTA added; for number of dehydrations after incubation with LctM: MALDI-MS / ESI-FTMS of product
LctM, sequence (P37609 whole entry): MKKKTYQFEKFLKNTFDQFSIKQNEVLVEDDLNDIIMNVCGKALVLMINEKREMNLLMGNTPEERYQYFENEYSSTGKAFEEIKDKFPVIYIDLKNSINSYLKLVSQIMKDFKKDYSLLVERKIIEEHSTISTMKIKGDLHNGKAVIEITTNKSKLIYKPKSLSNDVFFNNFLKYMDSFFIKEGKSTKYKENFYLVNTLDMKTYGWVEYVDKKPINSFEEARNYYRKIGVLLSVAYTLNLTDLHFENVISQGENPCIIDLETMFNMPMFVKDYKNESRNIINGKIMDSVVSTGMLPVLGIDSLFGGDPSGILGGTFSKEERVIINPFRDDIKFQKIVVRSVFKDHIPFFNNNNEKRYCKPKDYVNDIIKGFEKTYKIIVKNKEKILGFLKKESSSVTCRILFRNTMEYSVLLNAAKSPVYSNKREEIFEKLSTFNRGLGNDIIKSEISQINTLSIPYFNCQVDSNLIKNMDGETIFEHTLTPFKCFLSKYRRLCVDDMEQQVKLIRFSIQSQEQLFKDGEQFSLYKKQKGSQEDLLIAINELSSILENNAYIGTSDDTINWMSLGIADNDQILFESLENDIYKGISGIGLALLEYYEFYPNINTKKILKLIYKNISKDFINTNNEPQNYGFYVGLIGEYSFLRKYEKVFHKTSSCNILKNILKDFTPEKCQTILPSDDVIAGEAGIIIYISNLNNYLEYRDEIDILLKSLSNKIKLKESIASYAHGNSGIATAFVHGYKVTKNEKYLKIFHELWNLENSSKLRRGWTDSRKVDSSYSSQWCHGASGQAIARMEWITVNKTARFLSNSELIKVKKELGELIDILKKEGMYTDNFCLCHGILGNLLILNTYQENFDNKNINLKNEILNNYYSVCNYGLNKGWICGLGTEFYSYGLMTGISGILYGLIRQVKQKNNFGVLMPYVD
Source text: For MALDI MS analysis, 1 microL of the assay sample was mixed with 9 microL of sinapinic acid pre-dissolved in MeCN:H2O (2:1) in 0.1% TFA and 1 microL of the mixture was applied on the MALDI target. MALDI MS calcd. […] ESI-FT-MS for the major product: mass calcd.

[1] = molecular target: His6-LctA (Lactococcus lactis CNRZ 481)
[2] = molecular target: His6-LctA-T48S (Lactococcus lactis CNRZ 481)
[3] = molecular target: LctMutA (Artificial Sequence)
[4] = molecular target: LctRumA (Artificial Sequence)
[5] = molecular target: MutA (His-tagged mutacin II prepeptide) (Artificial)
[6] = molecular target: LctMutAK (Artificial Sequence)
[7] = tested on: methicillin-resistant Staphylococcus aureus (MRSA); details: cited from earlier work
[8] = molecular target: T1, protease domain of LctT (GST-Lpd) (Lactococcus lactis subsp. lactis, UniProt P37608); experiment: Leader cleavage by the LctT protease domain (GST-Lpd); assay type: biochemical, Lactococcus lactis CNRZ 481; details: MALDI-TOF MS
T1 sequence (P37608 whole entry, looked up): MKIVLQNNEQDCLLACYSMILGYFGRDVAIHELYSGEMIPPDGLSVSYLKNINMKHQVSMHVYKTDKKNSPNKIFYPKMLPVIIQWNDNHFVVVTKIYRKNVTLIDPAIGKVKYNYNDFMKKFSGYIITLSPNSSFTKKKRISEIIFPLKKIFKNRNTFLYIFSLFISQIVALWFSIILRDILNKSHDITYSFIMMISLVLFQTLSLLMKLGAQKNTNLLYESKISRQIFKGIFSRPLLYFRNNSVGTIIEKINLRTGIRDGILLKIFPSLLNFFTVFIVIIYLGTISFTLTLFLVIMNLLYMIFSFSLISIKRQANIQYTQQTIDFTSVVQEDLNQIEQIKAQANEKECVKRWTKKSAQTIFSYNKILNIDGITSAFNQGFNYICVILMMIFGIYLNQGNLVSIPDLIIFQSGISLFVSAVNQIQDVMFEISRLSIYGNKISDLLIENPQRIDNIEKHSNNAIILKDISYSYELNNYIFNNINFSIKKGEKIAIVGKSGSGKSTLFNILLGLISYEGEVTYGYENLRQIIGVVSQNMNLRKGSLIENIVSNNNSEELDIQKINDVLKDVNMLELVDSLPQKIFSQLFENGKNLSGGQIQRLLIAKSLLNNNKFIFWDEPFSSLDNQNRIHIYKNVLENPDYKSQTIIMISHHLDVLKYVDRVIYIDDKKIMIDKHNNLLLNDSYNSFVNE
Method: Cleavage of His-LctA and His-pro-Lacticin. The unmodified His-LctA substrate was either directly incubated with GST-Lpd or first modified by LctM prior to incubation with the protease. Assay mixtures typically contained substrate (50-500 μg), GST-Lpd (35-70 μg) and a buffer consisting of 200 mM NaPi, pH 7.5, 200 mM Na2SO4 and 5 mM DTT. Assays were incubated at 37° C. for 12 h and analyzed by MALDI-TOF MS. Both unmodified and modified His-LctA were substrates for GST-Lpd as determined by MALDI-TOF MS and sensitivity of indicator strain Lactococcus lactis 117 towards the modified substrate after cleavage. See FIG. 83 which illustrates LctT as a bifunctional protein including the proteolytic domain.

L. lactis CNRZ 117 = experiment: Bioassay for lantibiotic activity (solid agar diffusion); assay type: cell-based, Lactococcus lactis; details: agar diffusion assay, lacticin 481-sensitive indicator strain L. lactis CNRZ 117
Method: The lyophilized assay product (˜0.1 microg) was redissolved in 6 microL of Millipore water. To the solution, 4 microL of a solution of Lys-C in 100 mM Tris, pH 8.5 (0.4 ng/microL) was added and the mixture was incubated at 37° C. for 3 h. The resulting mixture was checked by MALDI-TOF MS. Three fragments were expected and two were observed: calcd, 2310 ([1-21]), 2591 ([22-44]), 2773 ([45-70]); found, 2593 ([22-44]), 2775 ([45-70]).
Inhibitory activity was assayed by the solid agar medium test. A GM17 agar plate was seeded with the test strain by mixing 100 mL of liquid GM17 agar at 50° C. with 1.5 mL of an overnight culture. After agar solidification, wells were created in the medium and the samples were added to the wells. The activity of the starting peptide, LctM-product, and the product and starting peptide treated with Lys-C were determined using a solid agar diffusion bioassay with indicator strain L. lactis CNRZ 117 (See FIG. 5).
FIG. 5 illustrates a bioassay for lantibiotic activity. Small aliquots of the following samples were added in the wells: (1) His6-LctA (SEQ ID NO:4), (2) His6-LctA treated with Lys-C, (3) His6-LctA modified by LctM, (4) His6-LctA modified by LctM and treated with Lys-C, (5) cell free broth of L. lactis CNRZ 117, (6) cell free broth of L. lactis CNRZ 481 containing lacticin 481, (7) 50 mM Tris buffer, pH 8.5, (8) Lys-C in 50 mM Tris buffer, pH 8.5.

Nc1ncnc2c1ncn2[C@@H]1O[C@H](COP(=O)(O)OP(=O)(O)CP(=O)(O)O)[C@@H](O)[C@H]1O [AMP-PCP]
effect on LctM processing of His6-LctA (LctM): completely abolished

Nc1ncnc2c1ncn2[C@@H]1O[C@H](COP(=O)(O)OP(=O)(O)NP(=O)(O)O)[C@@H](O)[C@H]1O [AMP-PNP]
effect on LctM processing of His6-LctA (LctM): completely abolished

Nc1ncnc2c1ncn2[C@@H]1O[C@H](CO[P@](=O)(O)O[P@](=O)(O)O[P@@](=O)(O)S)[C@@H](O)[C@H]1O [ATP-gamma-S]
effect on LctM processing of His6-LctA (LctM): less efficient

O=C(O)CN(CCN(CC(=O)O)CC(=O)O)CC(=O)O [EDTA]
effect on LctM processing of His6-LctA (LctM): abolished the reaction

His6-LctM (lacticin 481 synthetase LctM with N-terminal His6-tag) (enzyme)
dehydration and cyclization of the substrate (ESI-FTMS, MS/MS) [1]: > 80% | dehydration of the substrate (MS) [2]: 4 dehydrations | dehydration of the substrate [3]: 4 dehydrations | dehydration of the substrate [4]: 4 dehydrations | dehydration of the substrate [5]: 4 dehydrations | dehydration of the substrate [6]: 4 dehydrations

mersacidin
cytotoxic activity against MRSA [7]: comparable cytotoxic activity

B1: LctMutA: His-tag, LctA leader and mutacin II structural region (peptide)
chain: GSSHHHHHHSSGLVPRGSHMLEMKEQNSFNLLQEVTESELDLILGANRWWQGVVPTVSYECRMNSWQHVFTCC
number of dehydrations after incubation with LctM (LctM): 4 | cleavage of the leader by the LctT protease domain [8]: can remove the leader peptide and the His-tag

B2: His6-LctA (peptide)
peptide: GSSHHHHHHSSGLVPRGSHMKEQNSFNLLQEVTESELDLILGAKGGSGVIHTISHECNMNSWQFVFTCCS
antimicrobial activity (zone of inhibition) (L. lactis CNRZ 117): No antimicrobial activity was detected | number of dehydrations after incubation with LctM (LctM): four | substrate converted to M-72 product (LctM; treatment with LctM for 1 hour): more than 80% | cleavage of the leader by the LctT protease domain [8]: substrates

B3: His6-LctA modified by LctM: fully processed product, lacticin 481 fused to its leader peptide (peptide)
peptide: B2 peptide
modifications: not fully specified (residues 52, 54, 61, 67, bridges)
antimicrobial activity (zone of inhibition) (L. lactis CNRZ 117): No antimicrobial activity was detected | cleavage of the leader by the LctT protease domain [8]: substrates
